According to the nanobody polyreactivity screen of Harvey et al. (2022):

Experiment: yeast display, Sf9 membrane polyspecificity reagent, FACS + sequencing; frameworks hold sequencing errors
Outline: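 Nanobodies came from a synthetic yeast display library in Saccharomyces cerevisiae BJ5465, induced with galactose for 36–48 hours and stained for 1 hour at 4 °C with 10% biotinylated, detergent-solubilized Sf9 membrane reagent. Cells were enriched on streptavidin microbeads and then FACS-sorted, with low and high (top ~1%) gates set on anti-HA fluorescence for expression and streptavidin fluorescence for reagent binding. Each polyreactivity label reflects the gate a clone came from. Genes were amplified by colony PCR, sequenced by MiSeq 2 × 250 and filtered by CDR length.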

Sequence | polyreactivity (PSR sort gate)
QVQLVESGGGLVQAGGSLRLSCAASGFTFLYYTMGWYRQAPGKERELVAAISSGGRTTYADSVKGRFTISRDNAKNTVYLQMNSLKQEDTAVYYCAARYRTLDGEVDYWGQGTQVTVSS | high polyreactivity
QVQLVESGGGLVQAGGSLRLSCAASGFIVRRYAMGWYRQAPGKERELVAAITSSGTSTYYADSVKGRFTISRDTAKYTVYLQMNSLKPEDTAVYYCAAVYQYTHYYSNYRYWGQGTQVTVSS | high polyreactivity
QVQLVESGGGLVQAGVSLRLSCAASGSIFAYYAMGWYRQAPGKERELVATIRSSGGRTYYADSVKGRFTISRDNAKNNVYLHLNSLKPEDTAVYYCAAERSITYDYWGQGTQVTVSS | high polyreactivity
QVQLEESGGGLVQAGGSLRLSCAASGSTFRLYAMGWYRQAPGKERELVATITNGGNTYYADSVKGRFTISRDNAKNTVYLQMNSLKPEDTAVYYCAKRLSRRYDYWGQGTQGTVSS | low polyreactivity
QVQLVESGGGLVQAGGSLRLSCAASGSIFVGNAMGGYRQAPGKERELVAAITSSGGRTYYADSVKGRFTISRDNAKNTVYLQMNSLKPEDTAVYYCNTSRTRRFSLWAYDYWGQGTQVTVSS | high polyreactivity
QVQLVESGGGLVQAGGSLRLSCAASVFIFPHYTMGWYRQAPGKERELVAAISSSGGSTYYADSVKGRFTISRYNAKNTVYLQMNSLKPEDSADYYCPGPLPYYGQYDYWGQGTQVTVSS | low polyreactivity
QVQLVESGGGLVQAGGSLRLSCAASGGIFYSYAMGWYRQAPGKERELVAAITWIGGSTYYADSVKGRFTISRDNAKNTVYLQMNSLKPEDTAVYYCAAEILWGGYDYWGQGTQVTVSS | low polyreactivity
QVQIVESGGGLVQAGGSLRLSCAASGFTFGVYAMGWYRQAPGKERELVAAISVSGGRTYYADSVKGRFTISRDNAKNTVYLQMNSLKPEDTAVYYCAADLGLKTSSRRTSMYYWGQGTQVTVSS | high polyreactivity
QVQLVESGGGLVQAGGSLRLSCAASGLTFPPNAMGWYRQAPGKEREFVAVISSGGGSTYYADSVMGRFTISRDHAKNTVYLQMNSLKPEDTAVYNCATEYQDGDTEYYYWGQGTQVTVSS | low polyreactivity
QVQLVESGGGLVQAGGSLRLSCAASGRIFVRYTMGWYRQAPGKERELVAAINSGGRTYYADSVKGRFTISRDNAKNTVYLQMNSLKPEDTAVYYCAADRVYYGQRDYWGQGTQVTVSS | high polyreactivity
QVQLVESGGRIVQAGGSLRLSCAASGRTFLYNVMGWSRQAPGKERELVAAITSGGRTYYADSVKGRFTISRDNAKNTVYLQMNSLKPEDTAVYYCNADRQLYIYRYDYWGQGTQVTVSS | low polyreactivity
QVQLVESGGGLVQAGGSLRLSCAASGITSRFNAMGWYRQAPGKERELVAAISSRGTSTYYADSVKGRFTISRDNAKNTVYLQMNTLKPEDTAVYYCAVSQRAPKFPGDYWGQGPQVTVSS | high polyreactivity
QVQLVESGGGLVQAGGSLRLSCAASGSIFKYNAMGWYRQAPGKEREFVAAISSSSGNTYYADSVKGRFTISRDNAKNSVYIQMNSLKPEDTAVYYCAARTFAYRRGWFGYWGQGTQVTVSS | high polyreactivity
QVQLVESGGGLVQAGGSLRLSCAASGYIFYFNAMGWYRQAPGKERELVAVISDRDDSTYYADSVKGRFTISRDNAKNTVYLQMNSLKPEDTAVYYCAADGDTYVDDPYDYWGQGTQVTVSS | low polyreactivity
QVQLVESGGGLDQAGGSLRLSCAASGSTFGTYAMGWYRQAPGKEWQLVADITGSGGSTYYADSVKGRFTISRDNAKNTVYLQMNSLKPEDTAVYYCAGEYGLGDDTAYGYWGQGTQGTVSS | low polyreactivity
QVQLVESGGGLVQAGGSLRLSCAASGRTFTSNAMGWYRQAPGKERELVAAITRGGSTYYADSVKGRFTISRDNAKITVYLQMNSLKPEDTAVYYCAAAYGGRLRYTAGYYWGQGTQVTVSS | high polyreactivity
QVQLVESGGGLVQAGGSLRLSCAASGRTFNIYAMGWYRQAPGKERELVAAISKRGGTTYYADSVKGRFTISRDNAKNTVYLQMNSLKPEDTAVYYCAADRTNPYYGGMDYWGQGTQVTVSS | high polyreactivity
QVQIVESGGGLVQAGGSLRISCAASGFIFNRYAMGWYRQAPGTERELVADITGGSTYFADSVKGRFTISRDNAKNTVYLLMKSLKPEDTAVYYCAADVLRISTLLFRGPGFDYWGQGTQVTVSS | low polyreactivity
QVQLVESGGGLVQARGSLRLSCAASGYIFFGNAMGWYRQAPGKERELVAAIRWRGTSTYYADSVKGRFTISRDNAKNTVYLQMKSLKPEDTAVYYCAADVVSSNFYGTFLYDYDYWGQGTQVTVSS | low polyreactivity
QVQLVESGGRLVQAGGSLRLSCAASGRTFGYYAMGWYRQAPGQERELVAAITESGGSTYYSDSVKGRFTISRDNAMNTVYLQMNSLKPEDTAVYYFASTHFVKGDYWGQGTQVTVSS | high polyreactivity
QVQLVESGGGLVQAGGSLRLSCAASGRIFGLNAMGWYRQAPGKERELVAAISERDGSTYYADSVKGRFTISRDNAKNTVYLQMNSLKPEDTAVYYCAAEKPVHYVRGVHYDYWGQGTQVTVSS | low polyreactivity
QVQLVESGGGLVQAGGSHRLSSAASVRIFRGYAMGWYRPAPGKERELVAVISYSGTRTYYADSVKGRFTISRDNAKNTVYLQMNSLKPEDTAVYYCNASANGFKEGYWGQGTQVTVSS | high polyreactivity

Sequence | polyreactivity (PSR sort gate)
QVQLVESGGGLVQAGGSLRLTCAASGSTFDINAMGWYRQAPGKERELVASITFSGGSTYYADSVKGRFTISRDNAKNTVYLQMNSLKPEDTAVYYCAADSSGEYPRWLRYDYWGQGTQVTVSS | low polyreactivity
QVQLVESGGGLVQAGGSLRLSCAASGLILSAYAMGWYRQAPGKERELVAAISKRGGSTYYADSVKGRFTISRDNAKNTVYSQMNSLKPEDTAVYYCAADYTKHYWGQGTQVTVSS | high polyreactivity
QVQLVESGGGLVQAGGSLRLSCAASGRTFRSNAMGWYRQAPGKERELVAAITRSGGNTYYADSVKGRFTISRDTAKNTVYLQMNSLKPEDTAVYYCADRYSNPWARVSGYDYWGQGTQVTVSS | high polyreactivity
QVQLVESGGGLVQAGGSLRLSCAASGSTVRRNTMGWYRQAPGKERELVAGISSSGGSTYYADSVKGRFTISRDNAKNTVYLQINSLKPEDTAVYYCAARFYVSYVGYNYWGQGTQVTVSS | high polyreactivity
QVQLVESGGGLVQAGVSLRLSCAASGITLYRYAMGWYRQATGKERELVADISSGGGTTYYADSVKGRFTISRDNAKNTVYLQMNSLKPEDTAVYYCAADYGFRYPLYDYWGQGTQVTVSS | low polyreactivity
QVHLVESGGRLVQAGGSLRLSCAASGSTFTINVMGWYRQAPGKERELVADISWSGGSTYYADSVKGRFTISRDNAKNTVYSQMNSLYPVYTAVSYCATDGAYWTYYSWYDYWGQGTQVTVSS | low polyreactivity
QVQLVESGGGLVQAGGSLRLSCAASGSTYRGNAMGWYRQAPGKEREFVAAITVSGGSTYYADSVKGRFTISRDNAKNTVFLQMNSLKPEDTAVYYCAARLTYNYYWGQGTQVTVSS | high polyreactivity
QVQLVESGGGLVQAGGSLRLSCAASGIIFTYYAMGSYRQAPGKERELVAAISSRGDSTYYADSVKGRCTISRDNAKNTVSLQLNSLKTEDTAVYYCNRYLSRPLRAMYYWGIGTQVTVSS | high polyreactivity
QVQLVESGGGLVQAGGSLRLSCAASGFIFTDNVMGWYRQAPGKERELVAAISRRGGSTYYADSVKGRFTISRDNAKNTVYLQMNSLKPEDTAVYYCNVARQSYLLDYWGQGTQVTVSS | high polyreactivity
QVQLVESGGGLVQAGGSLRLSCAASGNTFVYNDMGWYRQAPGKERELVADIRYSGSTYYADSVKGRFTISRDNAKNTVYLQMNSLKPEDTAVYYCAKAYYVLSWMGYWGQGTQVTVSS | low polyreactivity
QVQLVESGGGLVQAGGSLRLSCAASGSTFKWNAMGWYRQAPGKERELVAAINSGGSTYYADSVKGRFTISRDNAKNTVYLQMNSLKPEDTAVYYCAKKWAVRTPFRYGIRYDYWGQGTQVTVSS | low polyreactivity
QVQLVESGGGLVQAGGSLRLSCAASGIIFRRNAMGWYRQAPGKERELVAAIRWSGGSTYYADSVKGRFTISRDNAKNTVYLQMNSLKPEDTAVYYCAARYYRPRYEMDYWGQGTQVTVSS | low polyreactivity
QVQIVESGGGLVQAGGSLRLSCAASGSTYDHYTLGWYRQAPGKERELVAAINRIADSTYYADSVKGRFTNSRDNQKNTVYVQMTSLNPEDTAVYYCAARQFVYSSRIILYDYWGHGTQVTVSS | high polyreactivity
QVQLVESGGGLVQAGGSLRLSCAASGIFRGYAMGWYRQAPGKEREFVAAISRTGGGTYYADSVKGRFTISRDNAKNTVYLQMNSLKPEDTAVYYCAAVRKYDGQKFGYWGQGTQVTVSS | low polyreactivity
QVQLVESGGGLVQAGGSLRLSCAASGITLGRYAMGWYRQAPGKERELVAAISRSGGSTYYADSVKGRFTISRDNEKNTVYLLMNSLKPEDTAVYYCNRRVYPTSDYDYWGQGTQVTVSS | high polyreactivity
QVQLVESGGGLVQAGGSLRLSCAASGSIFSYYAMGWYRQATGKERELVAAITRGGTTYYAVCVKGRFTISRDNAKNTVYLQMNSLKPDDTAVYYCAVYYYSGTAGYRYGYWGQGTQVTVSS | high polyreactivity
QVQLVESGGGLVQAGGSLRLSCADSGSIFDGNAMGWYRQAPGKERALVAAISRRGGSTYYADSVKGRFTISRDKAKNTVYLQMNSLKPEDTAVYYCNAYLSYFDGNYWGQGTQVTVSS | high polyreactivity
QVQLVESGGGLVQAGGSLRLSCAASGRIFVYNAMGWYIQAPGKERELVAAISWSTGRTNYADSVKGRFTISRDNAKNTVYLQMNSLKPDDTAVYYCAAEWAWEYYSFWSEYDYWGQGTQVTVSS | high polyreactivity
QVQLVESGGGLVQAGGSLRLSCAASGITFPYYAMGWYRQAPGKERELVAAITIRSGRTYYADSVKGRFTISRDNAKNTVYLQMNSLKPEDTAVYYCAARLSNTYGYWGQGTQVTVSS | high polyreactivity
QVQLQESGGGLEQAGGSLRLSCAASGYITDIGTMGWYRQAPGKEREFVATIVVGSTTNYADSVKGRFTISRDNAKNTVYLQPESGRYRGVLLRGWLLAVGNFTYWGQGTQETVSS | low polyreactivity
HAQLQESGGGLVQAGGSLRRSFAASGSIFRFSGMGWYRRAPGKERELVASIGFGSITYYADRVKGRFTISRDNANNTVYLQMNSLKPEDTAVYYCAVQVQDESWLDYWGQGTQVTVSC | low polyreactivity
